Test results taken from article PMC10933773, “Phosphorylation by ATR triggers FANCD2 chromatin loading and activates the Fanconi anemia pathway”.

Key:
Conditions in all cases: protein: recombinant;recombinant; tags: FLAG-HA;His; copies: 1;1; label: radiolabelled; fork: 29 bp duplex (S3[1-29] with S4[22-50]), unpaired arms 21 nt (3' of S3) and 21 nt (5' of S4)
[1] = biological target: FANCD2-10D;FANCI (human?;human?, UniProt Q9BXW9;Q9NVI1 1-1451;1-1328, S64D;S178D;S319D;T596D;T608D;S705D;S1257D;S1401D;S1404D;S1418D|); experiment: EMSA; stronger than WT and 10A; 25 mM Tris-HCl pH 7.5, 100 mM NaCl, 1 mM EDTA, 6% glycerol, 1 mM DTT, 1 nM DNA, room temperature 60-90 min; 4% PAGE 0.4x TBE at 4 C
[2] = biological target: FANCD2 WT;FANCI (human?;human?, UniProt Q9BXW9;Q9NVI1 1-1451;1-1328, |); experiment: EMSA; 25 mM Tris-HCl pH 7.5, 100 mM NaCl, 1 mM EDTA, 6% glycerol, 1 mM DTT, 1 nM DNA, room temperature 60-90 min; 4% PAGE 0.4x TBE at 4 C
[3] = biological target: FANCD2-10A;FANCI (human?;human?, UniProt Q9BXW9;Q9NVI1 1-1451;1-1328, S64A;S178A;S319A;T596A;T608A;S705A;S1257A;S1401A;S1404A;S1418A|); experiment: as above

Measured: binding result

Sequence of FANCD2 WT;FANCI (Q9BXW9 whole entry, chain 1 of 2): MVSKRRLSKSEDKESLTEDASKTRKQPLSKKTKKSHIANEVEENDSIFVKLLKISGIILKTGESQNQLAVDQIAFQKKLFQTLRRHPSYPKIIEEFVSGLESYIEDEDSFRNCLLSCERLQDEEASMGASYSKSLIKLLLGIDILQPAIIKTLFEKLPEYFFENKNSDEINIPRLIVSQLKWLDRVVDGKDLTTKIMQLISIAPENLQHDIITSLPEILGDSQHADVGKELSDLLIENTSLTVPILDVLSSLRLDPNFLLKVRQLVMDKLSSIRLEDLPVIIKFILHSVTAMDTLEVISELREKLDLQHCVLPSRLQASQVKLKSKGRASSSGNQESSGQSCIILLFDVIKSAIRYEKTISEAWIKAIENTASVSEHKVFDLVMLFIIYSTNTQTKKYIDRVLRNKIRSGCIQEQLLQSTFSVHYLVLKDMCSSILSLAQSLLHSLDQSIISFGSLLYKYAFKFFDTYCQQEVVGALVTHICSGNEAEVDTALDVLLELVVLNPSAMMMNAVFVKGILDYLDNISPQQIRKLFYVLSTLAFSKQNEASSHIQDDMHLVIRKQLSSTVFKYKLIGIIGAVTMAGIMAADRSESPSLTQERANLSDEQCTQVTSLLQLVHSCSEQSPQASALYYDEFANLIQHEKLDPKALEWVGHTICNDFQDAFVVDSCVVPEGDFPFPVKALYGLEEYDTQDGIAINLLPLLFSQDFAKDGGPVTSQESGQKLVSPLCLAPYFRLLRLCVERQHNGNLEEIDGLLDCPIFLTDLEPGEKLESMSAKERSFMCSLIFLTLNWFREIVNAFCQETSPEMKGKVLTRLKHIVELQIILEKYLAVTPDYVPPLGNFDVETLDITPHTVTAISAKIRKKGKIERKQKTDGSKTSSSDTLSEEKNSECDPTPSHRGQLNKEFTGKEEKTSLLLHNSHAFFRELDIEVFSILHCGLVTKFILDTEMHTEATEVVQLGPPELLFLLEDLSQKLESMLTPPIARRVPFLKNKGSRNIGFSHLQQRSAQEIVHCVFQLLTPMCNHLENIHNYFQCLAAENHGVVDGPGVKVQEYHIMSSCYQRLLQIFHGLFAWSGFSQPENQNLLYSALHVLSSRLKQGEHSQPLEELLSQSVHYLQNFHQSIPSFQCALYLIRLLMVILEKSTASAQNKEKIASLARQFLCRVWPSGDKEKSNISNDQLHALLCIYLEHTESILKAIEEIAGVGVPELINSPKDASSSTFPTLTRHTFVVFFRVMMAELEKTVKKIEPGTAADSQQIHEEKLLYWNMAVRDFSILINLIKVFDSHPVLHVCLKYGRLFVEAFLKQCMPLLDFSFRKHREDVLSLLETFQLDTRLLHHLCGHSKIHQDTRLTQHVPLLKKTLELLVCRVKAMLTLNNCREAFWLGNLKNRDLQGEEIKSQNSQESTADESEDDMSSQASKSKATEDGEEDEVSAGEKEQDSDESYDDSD
Sequence of FANCD2 WT;FANCI (Q9NVI1 whole entry, chain 2 of 2): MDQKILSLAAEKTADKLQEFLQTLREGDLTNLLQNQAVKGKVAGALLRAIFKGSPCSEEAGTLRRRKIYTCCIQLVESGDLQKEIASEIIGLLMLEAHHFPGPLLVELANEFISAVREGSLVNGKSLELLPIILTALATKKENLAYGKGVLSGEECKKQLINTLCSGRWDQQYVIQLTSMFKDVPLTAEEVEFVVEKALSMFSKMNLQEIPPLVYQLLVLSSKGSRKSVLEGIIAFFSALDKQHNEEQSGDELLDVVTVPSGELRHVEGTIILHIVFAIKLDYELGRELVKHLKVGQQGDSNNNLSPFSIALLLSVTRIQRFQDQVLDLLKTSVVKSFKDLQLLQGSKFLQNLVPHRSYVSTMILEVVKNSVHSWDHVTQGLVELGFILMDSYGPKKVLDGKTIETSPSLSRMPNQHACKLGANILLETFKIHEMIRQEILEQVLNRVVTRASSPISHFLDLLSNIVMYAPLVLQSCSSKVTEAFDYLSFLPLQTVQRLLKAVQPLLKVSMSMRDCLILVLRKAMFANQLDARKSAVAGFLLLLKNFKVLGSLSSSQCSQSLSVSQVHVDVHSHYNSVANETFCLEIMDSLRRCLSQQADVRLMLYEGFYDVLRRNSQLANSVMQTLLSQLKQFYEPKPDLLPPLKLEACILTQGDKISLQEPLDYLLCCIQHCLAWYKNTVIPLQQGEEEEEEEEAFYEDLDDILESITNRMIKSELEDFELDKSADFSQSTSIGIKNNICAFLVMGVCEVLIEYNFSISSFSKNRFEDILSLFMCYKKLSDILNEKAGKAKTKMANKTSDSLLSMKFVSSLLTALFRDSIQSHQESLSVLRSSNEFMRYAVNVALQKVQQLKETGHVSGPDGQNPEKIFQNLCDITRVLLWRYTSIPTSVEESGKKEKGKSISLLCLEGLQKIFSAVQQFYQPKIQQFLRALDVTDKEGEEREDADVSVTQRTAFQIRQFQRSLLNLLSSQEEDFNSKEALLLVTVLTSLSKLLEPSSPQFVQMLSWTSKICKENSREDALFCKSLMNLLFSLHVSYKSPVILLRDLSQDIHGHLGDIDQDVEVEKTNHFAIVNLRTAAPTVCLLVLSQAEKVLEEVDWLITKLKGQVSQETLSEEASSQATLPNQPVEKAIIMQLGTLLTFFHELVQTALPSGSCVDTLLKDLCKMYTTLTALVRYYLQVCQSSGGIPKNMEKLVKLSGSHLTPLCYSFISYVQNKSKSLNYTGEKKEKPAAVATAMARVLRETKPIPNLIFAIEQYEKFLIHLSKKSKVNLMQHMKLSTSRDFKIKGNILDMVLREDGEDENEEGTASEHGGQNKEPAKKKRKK
Sequence of FANCD2-10A;FANCI (Q9BXW9 whole entry S64A/S178A/S319A/T596A/T608A/S705A/S1257A/S1401A/S1404A/S1418A, chain 1 of 2): as the sequence (Q9BXW9 whole entry, chain 1 of 2) above, with S64A, S178A, S319A, T596A, T608A, S705A, S1257A, S1401A, S1404A, S1418A counted along it
Sequence of FANCD2-10A;FANCI (Q9NVI1 whole entry, chain 2 of 2): as the sequence (Q9NVI1 whole entry, chain 2 of 2) above
Sequence of FANCD2-10D;FANCI (Q9BXW9 whole entry S64D/S178D/S319D/T596D/T608D/S705D/S1257D/S1401D/S1404D/S1418D, chain 1 of 2): as the sequence (Q9BXW9 whole entry, chain 1 of 2) above, with S64D, S178D, S319D, T596D, T608D, S705D, S1257D, S1401D, S1404D, S1418D counted along it
Sequence of FANCD2-10D;FANCI (Q9NVI1 whole entry, chain 2 of 2): as the sequence (Q9NVI1 whole entry, chain 2 of 2) above

B1: ICL14 Y-shaped DNA (stalled fork mimic) (dsDNA)
DNA 1: CATTGTGAATTCGCCTCTCTGTCTAGCCGAAGCTCGAAACGATCTTGTGC
DNA 2: GTCCATCAAAGTTCGACTGTGCGGCTAGACAGAGAGGCGAATTCACAATG
binds: [1] | [2] | [3]
